Assays:
[1] = target: T1, human transferrin receptor (human, UniProt P02786 89-760, limits assumed); assay: MST (Monolith NT.115), His-tag-dye-labelled protein, TfR titrated
T1 construct: also called TfR Human
Protocol: (§1) First, 100 μl of dye that specifically binds to a hexa-His tag (RED-tris-NTA 2nd Generation Dye) was prepared at a concentration of 50 nM, along with 100 μl of the produced protein at a concentration of 200 nM, followed by mixing the same and incubating at room temperature for 30 minutes. The incubated product was centrifuged at 13000 rpm for 10 minutes at 4° C. by a centrifuge, thus to separate the supernatant and obtain a dye-labeled protein.
(§2) Then, 25 μl of 9.65 μM transferrin receptor was added to the 1st PCR tube; 10 μl of PBS-T (PBS+0.5% tween 20) buffer was added to 2nd to 16th PCR tubes; 10 μl of transferrin in the 1st PCR tube was transferred to the 2nd PCR tube; and 10 μl was again transferred from the 2nd PCR tube to the 3rd PCR tube. Likewise, this procedure was continued up to the 16th tube thus to perform ½ dilution in a sequential order so that each of the 2nd to 16th PCR tubes becomes 20 μl.
(§3) Thereafter, 10 μl of the dye-labeled protein was added to each PCR tube, and the reaction was performed at room temperature for 1 hour.

[2] = target: T2, mouse transferrin receptor (mouse, UniProt Q62351 89-763, limits assumed); assay: as above
T2 construct: also called TfR Mouse
Protocol: as §1, §2, §3

[3] = target: T3, transferrin receptor (TfR), species not stated; assay: Microscale Thermophoresis (MST) with the transferrin receptor, Example 5; species of TfR not given on the sheet or in the legend (value coincides with the Mouse TfR row of Table 5)
T3 construct: also called the transferrin receptor
T3 sequence (P02786 whole entry): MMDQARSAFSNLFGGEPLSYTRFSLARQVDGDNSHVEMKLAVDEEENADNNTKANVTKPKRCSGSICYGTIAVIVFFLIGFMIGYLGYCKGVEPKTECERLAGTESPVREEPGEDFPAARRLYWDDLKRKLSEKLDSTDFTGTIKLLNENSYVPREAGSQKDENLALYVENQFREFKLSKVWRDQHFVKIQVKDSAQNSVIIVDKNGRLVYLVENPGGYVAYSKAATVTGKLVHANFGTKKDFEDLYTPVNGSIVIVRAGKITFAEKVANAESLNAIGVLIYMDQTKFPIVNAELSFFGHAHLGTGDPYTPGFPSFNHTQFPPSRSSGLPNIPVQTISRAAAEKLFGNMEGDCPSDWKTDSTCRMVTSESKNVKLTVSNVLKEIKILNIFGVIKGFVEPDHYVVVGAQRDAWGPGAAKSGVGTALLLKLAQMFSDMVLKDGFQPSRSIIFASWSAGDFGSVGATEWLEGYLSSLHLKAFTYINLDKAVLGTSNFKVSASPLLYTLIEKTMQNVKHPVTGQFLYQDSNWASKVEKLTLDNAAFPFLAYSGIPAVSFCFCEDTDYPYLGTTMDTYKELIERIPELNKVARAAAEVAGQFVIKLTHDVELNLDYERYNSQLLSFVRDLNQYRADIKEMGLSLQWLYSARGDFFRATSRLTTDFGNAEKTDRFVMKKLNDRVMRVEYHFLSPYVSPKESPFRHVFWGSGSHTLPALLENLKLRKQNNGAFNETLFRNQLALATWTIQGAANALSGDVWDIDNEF

T1 sequence (P02786 89-760 limits assumed): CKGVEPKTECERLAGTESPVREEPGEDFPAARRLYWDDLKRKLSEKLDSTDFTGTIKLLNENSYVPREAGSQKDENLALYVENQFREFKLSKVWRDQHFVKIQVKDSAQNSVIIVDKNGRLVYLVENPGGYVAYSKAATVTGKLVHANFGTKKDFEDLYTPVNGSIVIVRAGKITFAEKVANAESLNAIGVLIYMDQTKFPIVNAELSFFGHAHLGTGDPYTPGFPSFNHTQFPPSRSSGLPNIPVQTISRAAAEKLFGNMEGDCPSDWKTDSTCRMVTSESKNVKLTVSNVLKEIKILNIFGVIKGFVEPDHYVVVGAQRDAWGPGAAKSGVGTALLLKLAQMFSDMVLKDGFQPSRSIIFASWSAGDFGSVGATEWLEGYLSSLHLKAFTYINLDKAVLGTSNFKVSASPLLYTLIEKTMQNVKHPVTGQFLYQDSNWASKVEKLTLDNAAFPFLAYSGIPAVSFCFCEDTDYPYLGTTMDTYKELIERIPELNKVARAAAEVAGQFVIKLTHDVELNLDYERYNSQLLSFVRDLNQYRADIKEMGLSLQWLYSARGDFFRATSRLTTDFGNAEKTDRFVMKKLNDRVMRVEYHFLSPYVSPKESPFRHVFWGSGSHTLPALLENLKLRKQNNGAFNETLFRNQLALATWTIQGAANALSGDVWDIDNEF
T2 sequence (Q62351 89-763 limits assumed): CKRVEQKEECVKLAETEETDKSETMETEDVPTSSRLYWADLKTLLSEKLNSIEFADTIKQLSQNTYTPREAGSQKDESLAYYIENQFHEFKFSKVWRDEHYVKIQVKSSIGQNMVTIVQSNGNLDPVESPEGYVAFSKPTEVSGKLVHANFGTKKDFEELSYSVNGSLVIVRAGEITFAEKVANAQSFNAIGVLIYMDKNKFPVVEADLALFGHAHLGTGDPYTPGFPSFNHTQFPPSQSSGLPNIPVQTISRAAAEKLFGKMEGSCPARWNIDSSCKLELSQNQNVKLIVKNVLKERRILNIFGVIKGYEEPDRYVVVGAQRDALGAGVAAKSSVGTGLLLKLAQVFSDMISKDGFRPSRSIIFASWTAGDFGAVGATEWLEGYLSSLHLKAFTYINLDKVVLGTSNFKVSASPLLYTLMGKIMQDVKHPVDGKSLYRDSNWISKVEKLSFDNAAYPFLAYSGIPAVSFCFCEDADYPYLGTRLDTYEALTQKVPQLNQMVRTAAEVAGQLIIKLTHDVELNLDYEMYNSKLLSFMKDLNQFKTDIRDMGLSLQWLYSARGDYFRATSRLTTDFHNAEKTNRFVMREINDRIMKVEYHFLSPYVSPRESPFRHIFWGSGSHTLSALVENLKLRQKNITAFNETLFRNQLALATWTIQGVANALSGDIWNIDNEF

B1: DE-gp100-huHF (other)
chain: MHHHHHHLETTASTSQVRQNYHQDSEAAINRQINLELYASYVYLSMSYYFDRDDVALKNFAKYFLHQSHEEREHAEKLMKLQNQRGGRIFLQDIKKPDCDDWESGLNAMECALHLEKNVNQSLLELHKLATDKNDPHLCDFIETHYLNEQVKAIKELGDHVTNLRKMGAPEGSKVPRNQDWLEFSGLAEYLFDKHTLGDSDNES
modifications: One monomer is given; the particle is a self-assembled 24-mer. In the MST assay the His tag carried RED-tris-NTA dye non-covalently.
notes: also called huHF-DE-gp100; gp100-huHF (DE loop)
For B1, the Kd [1] was 9.78 nM, the Kd [2] was 30.5 nM and the Kd [3] was 30.5 nM.

B2: DE-AH1-huHF (other)
chain: HHHHHHMTTASTSQVRQNYHQDSEAAINRQINLELYASYVYLSMSYYFDRDDVALKNFAKYFLHQSHEEREHAEKLMKLQNQRGGRIFLQDIKKPDCDDWESGLNAMECALHLEKNVNQSLLELHKLATDKNDPHLCDFIETHYLNEQVKAIKELGDHVTNLRKMGAPESPSYVYHQFSGLAEYLFDKHTLGDSDNES
notes: also called AH1-huHF (DE loop); TSA insertion site DE, AH1
B2 gave a Kd [1] of 6.11 nM.

B3: BC-gp100-huHF (other)
chain: HHHHHHMTTASTSQVRQNYHQDSEAAINRQINLELYASYVYLSMSYYFDRDDVALKNFAKYFLHQSHEEREHAEKLMKLQNQRGGRIFLQDIKKPDCDDKVPRNQDWLWESGLNAMECALHLEKNVNQSLLELHKLATDKNDPHLCDFIETHYLNEQVKAIKELGDHVTNLRKMGAPESGLAEYLFDKHTLGDSDNES
notes: also called gp100-huHF (BC loop); TSA insertion site BC, gp100
For B3, the Kd [1] was 14 nM and the Kd [2] was 48 nM.

B4: BC-AH1-huHF (other)
chain: HHHHHHMTTASTSQVRQNYHQDSEAAINRQINLELYASYVYLSMSYYFDRDDVALKNFAKYFLHQSHEEREHAEKLMKLQNQRGGRIFLQDIKKPDCDDSPSYVYHQFWESGLNAMECALHLEKNVNQSLLELHKLATDKNDPHLCDFIETHYLNEQVKAIKELGDHVTNLRKMGAPESGLAEYLFDKHTLGDSDNES
notes: also called AH1-huHF (BC loop); TSA insertion site BC, AH1
B4 showed a Kd [1] of 107 nM.

B5: AB-gp100-huHF (other)
chain: HHHHHHMTTASTSQVRQNYHQDSEAAINRQINLELYASYVYLSMSYYFDRDDKVPRNQDWLVALKNFAKYFLHQSHEEREHAEKLMKLQNQRGGRIFLQDIKKPDCDDWESGLNAMECALHLEKNVNQSLLELHKLATDKNDPHLCDFIETHYLNEQVKAIKELGDHVTNLRKMGAPESGLAEYLFDKHTLGDSDNES
notes: also called gp100-huHF (AB loop); TSA insertion site AB, gp100
With B5 the Kd [1] was 29.7 nM and the Kd [2] was 40.8 nM.

B6: AB-AH1-huHF (other)
chain: HHHHHHMTTASTSQVRQNYHQDSEAAINRQINLELYASYVYLSMSYYFDRDDSPSYVYHQFVALKNFAKYFLHQSHEEREHAEKLMKLQNQRGGRIFLQDIKKPDCDDWESGLNAMECALHLEKNVNQSLLELHKLATDKNDPHLCDFIETHYLNEQVKAIKELGDHVTNLRKMGAPESGLAEYLFDKHTLGDSDNES
notes: also called AH1-huHF (AB loop); TSA insertion site AB, AH1
With B6 the Kd [1] was 10.9 nM.

B7: EC-gp100-huHF (other)
chain: MHHHHHHEFTTASTSQVRQNYHQDSEAAINRQINLELYASYVYLSMSYYFDRDDVALKNFAKYFLHQSHEEREHAEKLMKLQNQRGGRIFLQDIKKPDCDDWESGLNAMECALHLEKNVNQSLLELHKLATDKNDPHLCDFIETHYLNEQVKAIKELGDHVTNLRKMGAPESGLAEYLFDKHTLGDSKVPRNQDWLDNES
modifications: One monomer is given; the particle is a self-assembled 24-mer. In the MST assay the His tag carried RED-tris-NTA dye non-covalently.
notes: also called gp100 fused between E helix and C-terminus; TSA insertion site EC, gp100
B7 was tested, and the Kd [1] was 5.68 nM.

B8: CD-gp100-huHF (other)
chain: HHHHHHMTTASTSQVRQNYHQDSEAAINRQINLELYASYVYLSMSYYFDRDDVALKNFAKYFLHQSHEEREHAEKLMKLQNQRGGRIFLQDIKKPDCDDWESGLNAMECALHLEKNVNQSLLELHKLATDKNDKVPRNQDWLPHLCDFIETHYLNEQVKAIKELGDHVTNLRKMGAPESGLAEYLFDKHTLGDSDNES
notes: also called CD-loop-gp100; huHF-CD-gp100
With B8 the Kd [1] was 4.89 nM and the Kd [2] was 15.9 nM.

B9: CD-AH1-huHF (other)
chain: HHHHHHMTTASTSQVRQNYHQDSEAAINRQINLELYASYVYLSMSYYFDRDDVALKNFAKYFLHQSHEEREHAEKLMKLQNQRGGRIFLQDIKKPDCDDWESGLNAMECALHLEKNVNQSLLELHKLATDKNDSPSYVYHQFPHLCDFIETHYLNEQVKAIKELGDHVTNLRKMGAPESGLAEYLFDKHTLGDSDNES
notes: also called huHF-CD loop-AH1; CD-loop-AH1
With B9 the Kd [1] was 3.45 nM.

B10: NA-gp100-huHF (other)
chain: MHHHHHHTTASTSKVPRNQDWLQVRQNYHQDSEAAINRQINLELYASYVYLSMSYYFDRDDVALKNFAKYFLHQSHEEREHAEKLMKLQNQRGGRIFLQDIKKPDCDDWESGLNAMECALHLEKNVNQSLLELHKLATDKNDPHLCDFIETHYLNEQVKAIKELGDHVTNLRKMGAPESGLAEYLFDKHTLGDSDNES
modifications: One monomer is given; the particle is a self-assembled 24-mer. In the MST assay the His tag carried RED-tris-NTA dye non-covalently.
notes: also called gp100 fused between N-terminus and A helix; TSA insertion site NA, gp100
Binder B10 has a Kd [1] of 152 nM.

Reference: US20240148898A1 (CELLEMEDY, published 2024)
